In article doi:10.1101/239830:

Key:
Test in all cases: fluorescence polarisation
[1] = target: OR-1 peptide derived from olfactory receptor OLFR1507
[2] = target: V1rb2-2 peptide derived from vomeronasal receptor V1RB2
[3] = target: V1rb2-1 peptide derived from vomeronasal receptor V1RB2

- Kd [1]: 250 µM
- Kd [2]: 6.1 µM
- Kd [3]: 6.6 µM
Substance: PERK LD as used in the fluorescence anisotropy assays (domain or fragment)
